Data reported in patent publication US20150368616A1, “METHODS FOR INDUCTION OF CELL FATES FROM PLURIPOTENT CELLS” (THE CLEVELAND CLINIC FOUNDATION, priority 2013, published 2015).

Tests used:
H1 hES cultures = test: Pan-CM induction with reduced serum levels and Wnt3a on the first day, transcript analysis; format: cell-based, human
Text: FIG. 16 (A-B)—Reduction of serum levels increases endocrine formation. Pluripotent cultures were passaged onto matrigel and maintained in MEF-conditioned medium for three days before being induced to differentiate by exposure to Pan-CM. Three different conditions were used as outlined in panel A. In the first condition Pan-CM was supplemented with Wnt3a on the first day followed by a 0.2% concentration of FBS for the rest of the reaction. In the second condition Pan-CM was supplemented with 0.2% FBS for the second day on. In the third condition Pan-CM was supplemented with 2% KO serum replacer.
The Pan-CM mediated induction of insulin producing cells from the H1 hES cultures is improved when low concentrations of serum is used. […] Finally it was noted that lower levels of serum reduced to levels of MEOX1 (a gene associated with the mesodermal lineage) observed in these cultures.

pluripotent cultures = test: Defined (cell conditioned) medium versus Pan-CM, 5 day induction with serum variations and Wnt3a; format: cell-based, human; conditions: Wnt3a on the first day of the induction, 5 day induction period
Protocol: FIG. 44 (A-B)—Cell conditioned medium improves over the Pan-CM induction of pluripotent cells. Pluripotent cultures were passaged onto matrigel and maintained in the presence of MEF conditioned medium for 3 days to maintain pluripotency. They were next subjected to either Pan-CM or our cell conditioned medium supplemented with either 2% KO serum replacer or low concentrations of FBS as defined in panel A. The addition of Wnt3a on the initial day of differentiation was also assayed. […] Note the occurrence of the trunk progenitor cell is best defined with the loss of NKX6.1.
We next explored the ability of our defined medium informed from the transcriptome and sectretome analysis of the Pan-MEF cultures to induce the differentiation of pluripotent cells towards pancreatic fates. This was performed in short term cultures with incubation periods only lasting 5 days (FIG. 43).

[1] = system: stage 4 forward directed differentiating hES culture; test: Wnt3a at stage 4 of directed differentiation, RT-qPCR and immunohistochemistry; format: cell-based, human
Protocol: Panel A—Schematic representation of the two different directed differentiation protocols used throughout this series of experiments. The only difference between the two different differentiation protocols is the inclusion of Wnt3a at stage 4 of the directed differentiation protocol as illustrated. Control Cultures and cultures which had Wnt3a administrated at stage 4 were incubated an additional 4 days in maturation medium before RNA extractions and immunohistochemical analysis were performed. Panel B—An RT-qPCR analysis of the two differing conditions. Transcripts assayed are the endodermal marker FoxA2, the pancreatic progenitor marker Pdx1, the TrPC marker Nkx6.1 and the two endocrine markers Glucagon and Insulin. Note two different primer sets were used for insulin.
Panel C-J—Immunohistochemical analysis of stage 5 (day 4) cultures differentiated in the presence and absence of Wnt3a at stage 4. Panels CD and E-F compare the relative levels of C-peptide and Pdx1 respectively between the two differing differentiation protocols. Panels G-J show the combined expression of C-peptide and Pdx1 at both 10× magnification (panels G-H) and 20× Magnification (panels I-J).
To investigate the role of a canonical Wnt input on a PDX1+ progenitor population, Wnt3a was administered to a stage 4 forward directed differentiating hES culture. […] The relative expression of Pdx1 was increased over ˜5 fold over stage 4 cultures lacking the canonical input and relative transcript levels reached ˜3000 fold over hES controls. While Nkx6.1 levels were modest in comparison, only reaching a ˜3.3 fold increase over the stage 4 cultures lacking the canonical input and a relative transcript fold increase of ˜200 over hES controls. […] Both Glucagon and Insulin relative transcript levels were ˜2 fold greater in stage 4 cultures treated with Wnt3a as compared to stage 4 cultures lacking the canonical Wnt drive (FIG. 62 panel B). While there was a ˜5000 fold increase in Glucagon transcript levels and a ˜2500 fold increase in Insulin transcript levels when compared to hES levels. As a means to confirm the accuracy of the relative Insulin transcript levels two different set of primers were used and both primer sets produced similar results. In addition immunohistochemical analysis of these two different reactions was used to confirm the transcript analysis.

Ngn3 = test: Mutational series of Ngn3 in the HepG2 stability assay; format: cell-based
Text: FIG. 66 (A-B) illustrates a mutational series of Ngn3, designed to stabilize the protein. A. listing of site directed point mutations. B. Testing of five substitution mutants.
Combined, these analyses served to focus us on the presence of lysines in the Helix 1/loop region and highlighted the importance of N-terminal acetylation protection as well. Of note, The K^118LTK^121 motif in the loop is completely conserved in Ngn3 in vertebrates, including teleosts and amphibians, and also between Ngn family members. Our approach to stabilizing Ngn3 is therefore to create an exhaustive point-substitution series of K>R to cover the entire protein (FIG. 66A), and also create deletion mutants of the N-, and C-termini flanking the bHLH domain. Because K121 is completely conserved in the bHLH family group, and positioned so that it aligns with the Helix 1 axis, this residue is likely critical for the folding/binding dynamics of the HLH domain, and mutation of this may likely impact DNA binding/function. Such constraints are not evident for K^118. We will also substitute the T120 residue in the KLTK loop to a Glutamic acid (E) to mimic a possible stabilizing phosphorylation event, which, based on phylogenetic comparisons to MASH1 may be of importance. […]

[2] = Wnt3A added to Pan-CM on the first day, then 0.2% FBS

B1: Wnt3a: canonical Wnt ligand (protein, UniProt P56704 19-352, looked up)
Protein Wnt-3a: SYPIWWSLAVGPQYSSLGSQPILCASIPGLVPKQLRFCRNYVEIMPSVAEGIKIGIQECQHQFRGRRWNCTTVHDSLAIFGPVLDKATRESAFVHAIASAGVAFAVTRSCAEGTAAICGCSSRHQGSPGKGWKWGGCSEDIEFGGMVSREFADARENRPDARSAMNRHNNEAGRQAIASHMHLKCKCHGLSGSCEVKTCWWSQPDFRAIGDFLKDKYDSASEMVVEKHRESRGWVETLRPRYTYFKVPTERDLVYYEASPNFCEPNPETGSFGTRDRTCNVSSHGIDGCDLLCCGRGHNARAERRREKCRCVFHWCCYVSCQECTRVYDVHTCK
- HNF1-B up regulation (H1 hES cultures; [2]): ~55 ×
- HNF6 up regulation (H1 hES cultures; [2]): ~85 ×
- insulin transcript levels (H1 hES cultures; Wnt3a on the first day of differentiation in Pan-CM): comparable to the Pan-CM induction with 2% KO serum replacer
- NKX6.1 expression (pluripotent cultures): improved
- Glucagon and Insulin relative transcript levels compared to stage 4 cultures lacking the canonical Wnt drive [1]: ~2 fold
- Glucagon transcript levels increase compared to hES levels [1]: ~5000 fold
- Insulin transcript levels increase compared to hES levels [1]: ~2500 fold
- Nkx6.1 increase over the stage 4 cultures lacking the canonical input [1]: ~3.3 fold
- Nkx6.1 relative transcript fold increase over hES controls [1]: ~200 fold
- Pdx1 relative expression over stage 4 cultures lacking the canonical input [1]: > 5 fold
- Pdx1 relative transcript levels over hES controls [1]: ~3000 fold

B2: K86/87 to Arginines: Ngn3 substitution mutant, lysines K86/87 replaced by Arginines, stabilized Ngn3 (protein, UniProt P70661 1-214, looked up, variant K86R K87R)
Neurogenin-3: MAPHPLDALTIQVSPETQQPFPGASDHEVLSSNSTPPSPTLIPRDCSEAEVGDCRGTSRKLRARRGGRNRPKSELALSKQRRSRRRRANDRERNRMHNLNSALDALRGVLPTFPDDAKLTKIETLRFAHNYIWALTQTLRIADHSFYGPEPPVPCGELGSPGGGSNGDWGSIYSPVSQAGNLSPTASLEEFPGLQVPSSPSYLLPGALVFSDFL
- Ngn3 protein stability (Ngn3): lead to stabilization
